Laboratory results published in patent US20040126379A1.
Values belong to the molecule of their own block, whether it stands above or below them.

Target: human CD44v6 on antigen-positive FaDu cells (human) (UniProt P16070)
Test: flow cytometry (FACS) on antigen-positive FaDu cells, on ice 1 h, FITC-labeled anti-human IgG detection

Kd: 1.8 nM
Molecule: BIWI 1 (from UniProt P0DOX5 2-449)

Kd: 1 nM
B1: BIWA 4 (antibody, human IgG1, kappa, V domains shown)
VH: EVQLVESGGGLVKPGGSLRLSCAASGFTFSSYDMSWVRQAPGKGLEWVSTISSGGSYTYYLDSIKGRFTISRDNAKNSLYLQMNSLRAEDTAVYYCARQGLDYWGRGTLVTVSS
VL: EIVLTQSPATLSLSPGERATLSCSASSSINYIYWYQQKPGQAPRLLIYLTSNLASGVPARFSGSGSGTDFTLTISSLEPEDFAVYYCLQWSSNPLTFGGGTKVEIKR
